Here are results for one molecule from patent US20240124586A1 (WUXI BIOLOGICS IRELAND, published 2024).

The target of this assay is human C1Q (human, UniProt P02745 23-245; P02746 28-253; P02747 29-245). Briefly: ELISA, antibody coated on the plate, C1q titrated. How it is done:
ELISA Plates (Nunc) were coated with antibody samples at 3 μg/mL overnight at 4° C. After blocking and washing, C1q was gradient diluted starting from 600 μg/mL and incubated at room temperature for 2 hr. The plates were then washed and subsequently incubated with sheep anti-human C1q Ab-HRP for 1 hr. After washing, TMB substrate was added and the interaction was stopped by 2 M HCl. The absorbance at 450 nm was read using a microplate reader (Molecular Device).
The binding activity of antibodies to C1Q was tested by ELISA.

Chain of human C1Q (P02745 23-245 limits assumed, chain 1 of 3): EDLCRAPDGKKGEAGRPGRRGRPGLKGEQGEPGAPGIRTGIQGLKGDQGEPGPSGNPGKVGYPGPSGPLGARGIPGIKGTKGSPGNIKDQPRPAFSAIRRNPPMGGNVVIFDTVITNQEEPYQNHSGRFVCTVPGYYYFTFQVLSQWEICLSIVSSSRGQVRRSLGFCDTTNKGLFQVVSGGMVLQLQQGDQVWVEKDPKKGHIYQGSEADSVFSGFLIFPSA
Chain of human C1Q (P02746 28-253 limits assumed, chain 2 of 3): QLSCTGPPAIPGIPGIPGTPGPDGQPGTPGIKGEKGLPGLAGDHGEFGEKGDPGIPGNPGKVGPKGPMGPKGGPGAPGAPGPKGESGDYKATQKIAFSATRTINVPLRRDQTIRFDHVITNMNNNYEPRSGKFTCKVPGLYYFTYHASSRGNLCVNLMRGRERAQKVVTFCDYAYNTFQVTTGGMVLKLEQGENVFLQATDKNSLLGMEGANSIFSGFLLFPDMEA
Chain of human C1Q (P02747 29-245 limits assumed, chain 3 of 3): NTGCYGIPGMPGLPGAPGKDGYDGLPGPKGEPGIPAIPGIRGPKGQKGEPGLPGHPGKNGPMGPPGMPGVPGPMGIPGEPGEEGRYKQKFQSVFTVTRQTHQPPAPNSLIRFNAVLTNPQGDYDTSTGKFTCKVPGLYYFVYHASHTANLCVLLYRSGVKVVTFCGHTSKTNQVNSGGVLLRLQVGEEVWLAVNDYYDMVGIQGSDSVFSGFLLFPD

B1: W3438-T3U4.E17-1.uIgG4.SP, bispecific anti-CD3 x CD19 (bispecific antibody)
heavy 1: QVQLVQSGAEVKKPGSSVKVSCKASGFAFTDYYIHWVRQAPGQGLEWMGWISPGNVNTKYNENFKGRVTITADKSTSTAYMELSSLRSEDTAVYYCARDGYSLYYFDYWGQGTLVTVLEDLKNVFPPEVAVFEPSEAEISHTQKATLVCLATGFYPDHVELSWWVNGKEVHSGVCTDPQPLKEQPALQDSRYALSSRLRVSATFWQNPRNHFRCQVQFYGLSENDEWTQDRAKPVTQIVSAEAWGRYGPPCPPCPAPEFLGGPSVFLFPPKPKDTLMISRTPEVTCVVVDVSQEDPEVQFNWYVDGVEVHNAKTKPREEQFNSTYRVVSVLTVLHQDWLNGKEYKCKVSNKGLPSSIEKTISKAKGQPREPQVYTLPPCQEEMTKNQVSLWCLVKGFYPSDIAVEWESNGQPENNYKTTPPVLDSDGSFFLYSRLTVDKSRWQEGNVFSCSVMHEALHNHYTQKSLSLSLGK
light 1: DIVMTQSPDSLAVSLGERATINCKSSQSLLNSRTRKNYLAWYQQKPGQPPKLLIYWASTRQSGVPDRFSGSGSGTDFTLTISSLQAEDVAVYYCTQSHTLRTFGGGTKVEIKPDIQNPDPAVYQLRDSKSSDKSVCLFTDFDSQTQVSQSKDSDVYITDKCVLDMRSMDFKSNSAVAWSQKSDFACANAFQNSIIPEDTFFPSPESS
heavy 2: QMQLVQSGPEVKKPGTSVKVSCKASGYAFTSYNMYWVRQARGQRLEWIGYIDPYNGDTTYNQKFKGRVTITRDMSTSTAYMELSSLRSEDTAVYYCLTTAYAMDYWGQGTLVTVSSASTKGPSVFPLAPCSRSTSESTAALGCLVKDYFPEPVTVSWNSGALTSGVHTFPAVLQSSGLYSLSSVVTVPSSSLGTKTYTCNVDHKPSNTKVDKRVESKYGPPCPPCPAPEFLGGPSVFLFPPKPKDTLMISRTPEVTCVVVDVSQEDPEVQFNWYVDGVEVHNAKTKPREEQFNSTYRVVSVLTVLHQDWLNGKEYKCKVSNKGLPSSIEKTISKAKGQPREPQVCTLPPSQEEMTKNQVSLSCAVKGFYPSDIAVEWESNGQPENNYKTTPPVLDSDGSFFLVSRLTVDKSRWQEGNVFSCSVMHEALHNHYTQKSLSLSLGK
light 2: DIQLTQSPSFLSASVGDRVTITCSASSTVNYMHWYQQKPGKAPKLLIYSTSNLASGVPSRFSGSGSGTEFTLTISSLQPEDFATYYCHQWSSYPYTFGQGTKLEIKRTVAAPSVFIFPPSDEQLKSGTASVVCLLNNFYPREAKVQWKVDNALQSGNSQESVTEQDSKDSTYSLSSTLTLSKADYEKHKVYACEVTHQGLSSPVTKSFNRGEC
notes: also called E17-Design_2-QQQQ (IgG4); E17-IgG4; copies: 1 + 1 + 1 + 1
Turning to B1, the binding result was “no binding (tested: about 1500 nM C1q)”.
